Measurements reported in patent US20210072252A1 (WASHINGTON UNIVERSITY, published 2021).

Key:
[1] = target: peptide with N-terminal glutamate; experiment: biolayer interferometry (Blitz), peptide-coated sensor, NAAB in 1x PBS, 1:1 fit, kd/ka
[2] = target: peptide with N-terminal methionine (biolayer interferometry); experiment: as above
[3] = target: peptide with N-terminal asparagine; experiment: as above
[4] = target: peptide with N-terminal arginine; experiment: as above
[5] = target: synthetic peptide with N-terminal leucine (Example 1, on nanogel surface); experiment: single-molecule detection, TIRF microscopy; Cy5-labeled NAAB on peptide immobilized on nanogel; counts per field of view
Procedure: The NAAB for N-terminal leucine amino acids was non-specifically labeled with Cy5 fluorophore on lysine side chains. […] An additional experiment was performed with no peptide added. The labeled NAAB was briefly incubated with the immobilized peptide, and unbound protein was removed by washing. Bound protein, which may be bound specifically to peptides or non-specifically to the surface, was imaged by total internal reflection fluorescence (TIRF) microscopy. Spots exceeding a detection threshold were deemed to indicate bound protein and were converted to a number of counts per field-of-view.

B1: GluNAAB (enzyme)
chain: IKTRFAPSPTGYLHVGGARTALYSWLFARNHGGEFVLRIEDTDLERSTPEAIEAIMDGMNWLSLEWDEGPYYQTKRFDRYNAVIDQMLEEGTAYKCYCSKERLEALREEQMAKGEKPRYDGRCRHSHEHHADDEPCVVRFANPQEGSVVFDDQIRGPIEFSNQELDDLIIRRTDGSPTYNFCVVVDDWDMEITHVIRGEDHINNTPRQINILKALNAPVPVYAHVSMINGDDGKKLSKRHGAVSVMQYRDDGYLPEALLNYLVRLGWSHGDQEIFTREEMIKYFTLNAVSKSASAFNTDKLLWLNHHYI
notes: also called Glutamate
Binder B1 has a Kd [1] of 2120 nM.

B2: Met NAAB (as used in biolayer interferometry) (designed binder)
chain: AKKILVTCASPYANGSIHLGHMLEHIQADVWVRYQRMRGHEVNFICADDAHGTPIMLKAQQLGITPEQMIGEMSQEHQTDFAGFNISYDNYHSTHSEENRQLSELIYSRLKENGFIKNRTISQLYDPEKGMFLPDRFVKGTCPKCKSPDQYGDNCEVCGATYSPTELIEPKSVVSGATPVMRDSEHFFFDLPSFSEMLQAWTRSGALQEQVANKMQEWFESGLQQWDISRDAPYFGFEIPNAPGKYFYVWLDAPIGLMGSFKNLCDKRGDSVSFDEYWKKDSTAELYHFIGKGIVYFLSLFWPAMLEGSNFRKPSNLFVHGYVTVNGAKMSKSRGTFIKASTWLNHFDADSLRYYYTAKLSSRIDDIDLNLEDFVQRVNADIVNKVVNLASRNAGFINKRFDGVLASELADPQLYKTFTDAAEVIGEAWESREFGKAVREIMALADLANRYVDEQAPWVVAKQEGRDADLQAICSMGINLFRVLMTYLKPVLPKLTERAEAFLNTELTWDGIQQPLLGHKVNPFKALYNRIDMRQVEALVEASK
notes: Same engineered MetRS fragment as m5, here without stated Cy5 label; also called Methionine
Binder B2 has a Kd [2] of 1070 nM.

B3: AsnNAAB (enzyme)
chain: SIEYLREVAHLRPRTNLIGAVARVRHTLAQALHRFFNEQGFFWVSTPLITASDTEGAGEMFRVSTLDLENLPRNDQGKVDFDKDFFGKESFLTVSGQLNGETYACALSKIYTFGPTFRAENSNTSRHLAEFWMLEPEVAFANLNDIAGLAEAMLKYVFKAVLEERADDMKFFAERVDKDAVSRLERFIEADFAQVDYTDAVTILENCGRKFENPVYWGVDLSSEHERYLAEEHFKAPVVVKNYPKDIKAFYMRLNEDGKTVAAMDVLAPGIGEIIGGSQREERLDVLDERMLEMGLNKEDYWWYRDLRRYGTVPHSGFGLGFERLIAYVTGVQNVRDVIPFPRTP
notes: Purified on GSTrap; also called Asparagine
In the case of B3, the Kd [3] is reported as 754 nM.

B4: ArgNAAB (enzyme)
chain: EKQTIVVDYSAPNVAKEMHVGHLRSTIIGDAAVRTLEFLGHKVIRANHVGDWGTQFGMLIAWLEKQQQENAGEMELADLEGFYRDAKKHYDEDEEFAERARNYVVKLQSGDEYFREMWRKLVDITMTQNQITYDRLNVTLTRDDVMGESLYNPMLPGIVADLKAKGLAVESEGATVVFLDEFKNKEGEPMGVIIQKKDGGYLYTTTDIACAKYRYESLHADRVLYYIDSRQHQHLMQAWAIVRKAGYVPESVPLEHHMFGMMLGKDGKPFKTRAGGTVKLADLLDETLERARRLVAEKNPDMPADELEKLANAVGIGAVKYADLSKNRTTDYIFDWDNMLAFEGNTAPYMQYAYTRVLSVFRKAEINEEQLAAAPVIIREDREAQLAARLLQFEETLTVVAREGTPHVMCAYLYDLAGLFSGFYEHCPILSAENEEVRNSRLKLAQLTAKTLKLGLDTLGIETVERM
notes: Purified on GSTrap; also called Arginine
B4 gave a Kd [4] of 129 nM.

B5: eLAP, engineered leucine-specific aminopeptidase (NAAB for N-terminal leucine) (designed binder)
chain: MAISIKTPEDIEKMRVAGRLAAEVLEMIEPYVKPGVSTGELERICWDYIVNEQHATDSLTGHNGIDGHGSISINEVVCHGVPDDAKLLKDGDIVNIDVTVRKDGFHGDTSKMFIVGKPTIMGERLCRITQESLYLALRMVKPGINLREIGAAIQKFVEAEGFSVVREYCGHGIGRGHHEEPQVLHYDSRETNVVLKPGMTFTIEPMVNAGKKEIRTMKDGSTVKTKDRSLSAQYEHTIVVTDNGCEILTLRKDDTIPAIISHDE
modifications: Cy5 fluorophore non-specifically on lysine side chains
notes: also called NAAB for leucine
For B5, the “ratio of specific to non-specific binding” value [5] was ~2 to 1.
